Test results: patent US10946092 (BEIJING MABWORKS BIOTECH, dated 2021)
Where two headings read alike, the source gives them in different places. One block for each binder: values may come before it.

What was measured:
[1] = biological target: T1, monkey (rhesus) LAG3 expressed on HEK293A cells (monkey (rhesus), UniProt A0A5F8A874 23-533); experiment: FACS on HEK293A cells expressing rhesus LAG3
T1 construct: whole, on cells; also called HEK293A/rh LAG3
T1 sequence: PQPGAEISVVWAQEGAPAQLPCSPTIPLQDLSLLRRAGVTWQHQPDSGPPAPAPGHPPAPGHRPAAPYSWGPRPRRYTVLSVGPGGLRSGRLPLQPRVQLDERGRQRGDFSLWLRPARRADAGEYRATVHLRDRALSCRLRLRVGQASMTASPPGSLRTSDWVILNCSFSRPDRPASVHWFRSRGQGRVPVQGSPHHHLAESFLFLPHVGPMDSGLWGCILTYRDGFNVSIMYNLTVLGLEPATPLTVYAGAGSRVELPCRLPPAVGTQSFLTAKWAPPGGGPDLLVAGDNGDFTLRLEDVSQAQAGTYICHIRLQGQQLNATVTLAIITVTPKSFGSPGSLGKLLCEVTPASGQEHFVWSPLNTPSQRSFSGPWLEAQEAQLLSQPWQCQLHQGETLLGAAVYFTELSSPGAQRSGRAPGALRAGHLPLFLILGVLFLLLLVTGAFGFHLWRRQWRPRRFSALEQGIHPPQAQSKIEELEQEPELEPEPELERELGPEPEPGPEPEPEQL

[2] = biological target: T2, human LAG3 expressed on HEK293A cells (human, UniProt P18627 23-525); experiment: FACS on HEK293A cells expressing human LAG3
T2 construct: whole, on cells; also called HEK293A/human LAG3
T2 sequence (looked up): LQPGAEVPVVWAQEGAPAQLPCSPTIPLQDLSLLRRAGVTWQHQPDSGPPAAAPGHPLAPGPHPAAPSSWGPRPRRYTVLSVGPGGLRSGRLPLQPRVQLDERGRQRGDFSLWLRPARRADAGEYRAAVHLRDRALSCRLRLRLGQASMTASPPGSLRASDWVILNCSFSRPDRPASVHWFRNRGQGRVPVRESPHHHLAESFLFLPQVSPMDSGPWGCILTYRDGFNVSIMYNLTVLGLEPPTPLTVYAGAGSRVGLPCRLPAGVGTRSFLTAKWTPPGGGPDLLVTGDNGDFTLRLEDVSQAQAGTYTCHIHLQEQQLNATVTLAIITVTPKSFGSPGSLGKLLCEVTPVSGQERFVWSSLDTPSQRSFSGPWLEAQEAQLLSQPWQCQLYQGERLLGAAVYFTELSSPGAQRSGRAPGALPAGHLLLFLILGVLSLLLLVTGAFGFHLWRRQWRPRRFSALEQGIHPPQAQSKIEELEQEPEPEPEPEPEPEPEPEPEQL

[3] = biological target: T3, recombinant human LAG3(ECD)-his (Sino Biological, Cat #: 16498-H08H) (human, UniProt P18627 23-450); experiment: SPR (BIAcore 8K), human LAG3(ECD)-his coupled to chip, antibody injected, 1:1 Langmuir
T3 construct: extracellular domain; Bought protein; not shown: his tag
T3 sequence (looked up): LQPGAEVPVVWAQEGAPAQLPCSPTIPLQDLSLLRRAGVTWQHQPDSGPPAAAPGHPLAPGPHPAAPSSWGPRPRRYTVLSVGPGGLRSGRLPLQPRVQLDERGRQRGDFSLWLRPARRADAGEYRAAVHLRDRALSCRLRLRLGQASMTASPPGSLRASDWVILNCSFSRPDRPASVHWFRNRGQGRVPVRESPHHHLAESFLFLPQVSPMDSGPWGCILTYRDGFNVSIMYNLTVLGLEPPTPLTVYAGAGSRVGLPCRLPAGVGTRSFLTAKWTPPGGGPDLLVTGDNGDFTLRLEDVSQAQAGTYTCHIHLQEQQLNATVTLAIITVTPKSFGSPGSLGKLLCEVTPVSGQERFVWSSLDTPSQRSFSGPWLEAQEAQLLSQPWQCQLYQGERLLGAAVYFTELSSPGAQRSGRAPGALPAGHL
Method: (§1) Serially diluted antibodies at concentrations ranging from 0.3 μM to 10 μM were injected into the SPR running buffer (HBS-EP buffer, pH7.4, GE Life Sciences; US; Cat #: BR-1006-69) at 30 μL/minute. The binding capacities were calculated with the RUs of blank controls subtracted. The association rate (Ka) and dissociation rate (Kd) were calculated using the one-to-one Langmuir binding model (BIA Evaluation Software, GE Life Sciences). The equilibrium dissociation constant K_D was calculated as the kd/ka ratio.

[4] = biological target: T4, mouse LAG3 expressed on HEK293A cells (mouse, UniProt Q61790 24-521); experiment: FACS on HEK293A cells expressing mouse LAG3
T4 construct: whole, on cells; also called HEK293A/mouse LAG3
T4 sequence (looked up): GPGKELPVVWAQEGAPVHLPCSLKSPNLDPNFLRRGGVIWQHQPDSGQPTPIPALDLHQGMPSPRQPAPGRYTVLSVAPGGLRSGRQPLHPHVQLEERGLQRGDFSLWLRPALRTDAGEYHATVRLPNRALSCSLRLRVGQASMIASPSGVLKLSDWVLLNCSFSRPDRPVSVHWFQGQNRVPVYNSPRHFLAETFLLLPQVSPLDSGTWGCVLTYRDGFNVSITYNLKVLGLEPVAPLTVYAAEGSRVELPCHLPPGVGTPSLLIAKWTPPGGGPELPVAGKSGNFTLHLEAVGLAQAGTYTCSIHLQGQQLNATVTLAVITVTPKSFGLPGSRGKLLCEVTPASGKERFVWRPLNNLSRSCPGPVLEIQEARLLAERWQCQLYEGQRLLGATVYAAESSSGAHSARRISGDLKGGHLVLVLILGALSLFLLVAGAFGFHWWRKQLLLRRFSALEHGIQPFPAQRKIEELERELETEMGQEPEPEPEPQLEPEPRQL

[5] = biological target: T3, recombinant human LAG3(ECD)-his (Sino …); experiment: SPR (BIAcore 8K), human LAG3(ECD)-his coupled to chip, antibody injected, 1:1 Langmuir; printed a second time as 'Ka values', read as Kd
Method: as §1

[6] = biological target: T4, mouse LAG3 expressed on HEK293A cells; experiment: FACS on HEK293A cells expressing mouse LAG3; remark: listed apart in the source

- EC50 (read off the curve) [1]: ~0.4 µg/mL
- EC50 (read off the curve) [2]: ~0.05 µg/mL
- Kd [3]: 0.833 nM
- kon [3]: 403000 M⁻¹ s⁻¹
- binding result [4]: no binding
- koff [5]: 0.000335 s⁻¹
B1: chimeric 101F4 antibody (antibody, human IgG4 S228P, kappa, V domains shown)
VH: EVQLEQSGAELVRPGASVTLSCKASGYTFTDYEMHWVKQTPVYGLEWMGAIDPETGGIVYNQRFKGKAILTADKSSSTAYMELRSLTSEDSAVYYCTGAGWGYWGQGTTLTVSS
VL: DIVITQSPSSMYASLGERVTITCKASQDINSYLSWFQQKPGKSPKTLIYRANRLLDGVPSRFSGSGSGQDYSLTISSLEFEDMGLYYCLQYDEFPFTFGSGTKLEIKR
notes: Mouse variable regions on human IgG4 (S228P)/kappa constant regions; also called 101F4-CM

- binding result [6]: no binding
- EC50 (read off the curve) [2]: ~0.09 µg/mL
- Kd [3]: 0.737 nM
- kon [3]: 93900 M⁻¹ s⁻¹
B2: chimeric 134G10 antibody (antibody, human IgG4 S228P, kappa, V domains shown)
VH: EVQLVESGGDLVKPGGSLKLSCAASGFTFSSFGMSWVRQTPDKRLEWVGIISSGGTYTFYPDILKGRFTISRDNAKNTLYLQMSSLKSEDTAMYYCARVYSDYDGRFDYWGQGTTLTVSS
VL: DIVMTQSPSSLSVSAGEKVTMNCKSSQSLLNSGNQKNYLAWYQQKPGQPPKLLIYGASTRESGVPDRFTGSGSGTDFTLTISSVQAEDLAVYYCQNDHSYPLTFGAGTKLELKR
notes: Mouse variable regions on human IgG4 (S228P)/kappa constant regions; also called 134G10-CM
